Measurements: patent US20040001835A1, “Prevention or treatment of cancer using integrin alphavbeta3 antagonists in combination with other agents” (MedImmune, Inc., priority 2002, published 2004)
“Also recorded” adds a separate entry of the source.

Legend:
[1] = target: T1, human β3 complexed to endogenous mouse αv (Homo sapiens, UniProt P05106); experiment: Flow cytometric analysis of binding to human β3 transfected B16F10 cells; conditions: mouse melanoma B16F10, human β3 with endogenous mouse αv, FACS, FIG. 3
T1 construct: expressed in transfected cells; host or cells: B16F10 mouse melanoma
T1 sequence (P05106 27-788): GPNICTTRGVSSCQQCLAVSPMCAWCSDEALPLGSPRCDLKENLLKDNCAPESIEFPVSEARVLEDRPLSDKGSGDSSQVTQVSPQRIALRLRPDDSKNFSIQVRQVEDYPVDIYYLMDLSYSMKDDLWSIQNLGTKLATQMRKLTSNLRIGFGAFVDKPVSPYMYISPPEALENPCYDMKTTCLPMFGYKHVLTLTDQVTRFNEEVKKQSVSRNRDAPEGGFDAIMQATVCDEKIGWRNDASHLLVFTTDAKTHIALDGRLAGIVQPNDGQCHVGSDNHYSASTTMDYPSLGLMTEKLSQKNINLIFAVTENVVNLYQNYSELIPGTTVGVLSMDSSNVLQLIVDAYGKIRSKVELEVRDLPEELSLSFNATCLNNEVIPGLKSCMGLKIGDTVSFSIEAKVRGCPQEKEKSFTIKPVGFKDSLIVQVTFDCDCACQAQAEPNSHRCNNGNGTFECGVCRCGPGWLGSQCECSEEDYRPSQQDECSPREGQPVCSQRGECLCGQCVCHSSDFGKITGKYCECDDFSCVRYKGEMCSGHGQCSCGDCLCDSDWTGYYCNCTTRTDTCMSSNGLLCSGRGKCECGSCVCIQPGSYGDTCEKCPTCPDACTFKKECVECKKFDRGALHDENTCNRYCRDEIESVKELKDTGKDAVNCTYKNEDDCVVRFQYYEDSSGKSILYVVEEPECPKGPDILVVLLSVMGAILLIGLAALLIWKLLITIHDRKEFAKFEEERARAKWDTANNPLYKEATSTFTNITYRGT
T1 sequence (P43406 31-885 partner limits assumed): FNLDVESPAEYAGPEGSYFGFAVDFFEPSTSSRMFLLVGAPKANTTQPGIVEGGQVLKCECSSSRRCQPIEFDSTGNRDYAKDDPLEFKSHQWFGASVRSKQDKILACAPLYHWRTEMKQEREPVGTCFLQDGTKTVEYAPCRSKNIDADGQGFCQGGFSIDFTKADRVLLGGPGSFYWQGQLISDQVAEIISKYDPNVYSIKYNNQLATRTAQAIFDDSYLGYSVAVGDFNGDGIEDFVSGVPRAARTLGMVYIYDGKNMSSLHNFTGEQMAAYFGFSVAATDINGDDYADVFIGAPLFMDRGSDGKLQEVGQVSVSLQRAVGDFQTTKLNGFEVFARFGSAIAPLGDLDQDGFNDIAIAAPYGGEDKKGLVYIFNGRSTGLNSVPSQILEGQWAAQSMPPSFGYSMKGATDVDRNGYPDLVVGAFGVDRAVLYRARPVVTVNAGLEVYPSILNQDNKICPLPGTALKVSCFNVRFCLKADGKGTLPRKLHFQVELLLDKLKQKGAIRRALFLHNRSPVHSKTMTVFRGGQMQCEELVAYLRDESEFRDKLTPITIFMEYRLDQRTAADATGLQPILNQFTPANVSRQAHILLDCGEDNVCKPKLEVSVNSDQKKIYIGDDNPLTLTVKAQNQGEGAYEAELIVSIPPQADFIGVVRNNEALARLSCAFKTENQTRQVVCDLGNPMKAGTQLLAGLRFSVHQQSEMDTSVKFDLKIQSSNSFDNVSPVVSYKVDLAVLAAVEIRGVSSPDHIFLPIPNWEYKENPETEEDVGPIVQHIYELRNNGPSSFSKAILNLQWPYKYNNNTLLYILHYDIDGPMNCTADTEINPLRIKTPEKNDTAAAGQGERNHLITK
T1 sequence (P43406 887-1044 partner limits assumed): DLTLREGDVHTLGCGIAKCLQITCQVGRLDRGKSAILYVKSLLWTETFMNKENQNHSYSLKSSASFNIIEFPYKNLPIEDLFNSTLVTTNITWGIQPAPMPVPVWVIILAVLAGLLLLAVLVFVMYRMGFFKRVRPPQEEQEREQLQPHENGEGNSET
Experimental: FIG. 3. Flow cytometric analysis of binding of Vitaxin® to human β3 transfected B16F10 cells. In order to determine the binding specificity of Vitaxin® for αvβ3, the mouse melanoma line B16F10 was transfected with an expression vector encoding the human β3 gene. Cells were analyzed by FACS for expression of β3 expressed with the endogenous mouse αv.

[2] = target: T2, human β3 (αvβ3 on HEK293 cells) (Homo sapiens, UniProt P05106); experiment: FACS analysis of HEK293 cells transfected with human β3 cDNA; format: binding; conditions: wild type human β3, flow cytometry, FIG. 4
T2 construct: expressed in transfected cells; host or cells: HEK293
T2 sequence (P06756 31-889 partner limits assumed, one chain of several): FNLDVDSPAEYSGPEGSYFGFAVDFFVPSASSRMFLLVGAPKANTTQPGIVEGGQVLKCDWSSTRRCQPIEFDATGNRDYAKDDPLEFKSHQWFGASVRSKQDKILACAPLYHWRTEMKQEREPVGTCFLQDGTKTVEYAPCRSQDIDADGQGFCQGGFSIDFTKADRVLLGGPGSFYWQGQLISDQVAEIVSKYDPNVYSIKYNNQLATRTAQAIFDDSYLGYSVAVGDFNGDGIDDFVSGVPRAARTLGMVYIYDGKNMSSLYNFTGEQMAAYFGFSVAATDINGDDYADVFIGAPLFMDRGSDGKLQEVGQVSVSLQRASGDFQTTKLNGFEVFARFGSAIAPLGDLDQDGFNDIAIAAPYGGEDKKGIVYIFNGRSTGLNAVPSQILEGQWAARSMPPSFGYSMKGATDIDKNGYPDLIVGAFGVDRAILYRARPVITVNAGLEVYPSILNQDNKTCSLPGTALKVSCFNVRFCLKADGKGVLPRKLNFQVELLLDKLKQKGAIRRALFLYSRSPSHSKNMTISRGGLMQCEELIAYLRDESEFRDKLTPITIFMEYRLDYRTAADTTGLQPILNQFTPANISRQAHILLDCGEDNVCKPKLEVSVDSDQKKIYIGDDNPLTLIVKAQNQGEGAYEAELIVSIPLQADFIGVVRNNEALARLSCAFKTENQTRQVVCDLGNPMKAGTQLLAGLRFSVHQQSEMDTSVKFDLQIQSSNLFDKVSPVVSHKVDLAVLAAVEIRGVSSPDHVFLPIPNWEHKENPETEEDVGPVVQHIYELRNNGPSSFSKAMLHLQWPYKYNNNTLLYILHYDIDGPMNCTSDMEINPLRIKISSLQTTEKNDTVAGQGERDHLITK
T2 sequence (P06756 891-1048 partner limits assumed, one chain of several): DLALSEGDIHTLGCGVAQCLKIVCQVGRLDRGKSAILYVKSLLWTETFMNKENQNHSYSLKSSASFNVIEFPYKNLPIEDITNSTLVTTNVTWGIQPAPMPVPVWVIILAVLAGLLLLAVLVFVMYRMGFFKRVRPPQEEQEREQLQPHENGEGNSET
From the text: FIG. 4. Binding of Integrin αvβ3 specific antibodies to human β3 containing rat residues.
Sequence comparison of residues 164 to 202 of β3 integrins from different species and design of mutations. To further characterize the binding epitope of Vitaxin®, the gene encoding β3 was cloned and sequenced from hamster cDNA. The amino acids in the region previously proposed to contain the LM609 binding epitope are shown above (dashed lines depict conserved residues). To determine which residues in the human sequence were essential for antibody binding, the amino acids shown in color were mutated to the corresponding rat residues. The resulting genes were transfected to HEK293 cells which express endogenous human αv. Resulting cell lines were analyzed by flow cytometry for antibody binding.
This protocol is used to assess the surface expression of integrins in HEK-293 cells transfected with various Integrin subunits. Primary antibodies bound to the integrins are detected by fluorochrome-conjugated secondary antibodies and analyzed by flow cytometry.
1. Wash adherent cells twice with 5 ml of PBS.
2. Add 1.5 ml of trypsin solution or cell dissociation solution, incubate at 37_C. foir 2 min.
3. Add 3 ml of culture medium or FACs buffer to the plate and loosen cells from the plate by pipetting. Count cells. Resuspend cells in FACs buffer at 5×10^6 per ml.
4. […]

binding to HEK293 cells transfected with human β3 cDNA [2]: detectable
B1: Vitaxin®: humanized blocking monoclonal antibody that binds Integrin αVβ3 (MEDI-522, MedImmune); humanized and optimized version of LM609 (antibody, chains of the INN, looked up, V domains shown)
VH: QVQLVESGGGVVQPGRSLRLSCAASGFTFSSYDMSWVRQAPGKGLEWVAKVSSGGGSTYYLDTVQGRFTISRDNSKNTLYLQMNSLRAEDTAVYYCARHLHGSFASWGQGTTVTVSS
VL: EIVLTQSPATLSLSPGERATLSCQASQSISNFLHWYQQRPGQAPRLLIRYRSQSISGIPARFSGSGSGTDFTLTISSLEPEDFAVYYCQQSGSWPLTFGGGTKVEIK
binding to human β3 transfected B16F10 cells [1]: bound; also recorded: recognized the transfected cells
